pKd: −log10 of the molar value.
Legend:
[1] = biological target: human FcγRIIb (CD32b) extracellular domain (human) (UniProt P31994); test: SPR, antibody captured on Protein A, steady state, 25 °C
[2] = biological target: human FcγRIIIA_158F (CD16a) extracellular domain (human) (UniProt P08637); test: as above
[3] = biological target: human FcγRIIA_131R (CD32a) extracellular domain (human) (UniProt P12318); test: as above
[4] = biological target: human FcγRIIA_131H (CD32a) extracellular domain (human) (UniProt P12318); test: as above
Chain of human FcγRIIA_131H (CD32a) extracellular domain (human) (P12318 34-217): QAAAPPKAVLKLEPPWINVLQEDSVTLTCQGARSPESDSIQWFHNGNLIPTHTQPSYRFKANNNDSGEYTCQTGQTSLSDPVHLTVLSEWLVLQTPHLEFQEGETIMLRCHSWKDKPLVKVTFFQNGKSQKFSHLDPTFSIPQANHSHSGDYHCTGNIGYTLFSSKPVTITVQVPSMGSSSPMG

[5] = biological target: human FcγRI (CD64) extracellular domain (human) (UniProt P12314); test: SPR, antibody captured on Protein A, receptor ECD as analyte, 25 °C
Chain of human FcγRI (CD64) extracellular domain (human) (P12314 16-292): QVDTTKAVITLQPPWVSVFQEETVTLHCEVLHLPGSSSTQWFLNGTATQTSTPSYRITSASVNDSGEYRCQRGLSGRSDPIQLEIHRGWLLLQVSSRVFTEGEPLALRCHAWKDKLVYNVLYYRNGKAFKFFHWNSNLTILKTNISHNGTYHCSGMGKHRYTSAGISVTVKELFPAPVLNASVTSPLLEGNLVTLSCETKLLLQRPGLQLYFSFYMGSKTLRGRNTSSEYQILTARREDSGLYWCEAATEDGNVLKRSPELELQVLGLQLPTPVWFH

[6] = biological target: human FcγRIIIA_158V (CD16a) extracellular domain (human) (UniProt P08637); test: SPR, antibody captured on Protein A, steady state, 25 °C
Chain of human FcγRIIIA_158V (CD16a) extracellular domain (human) (P08637 17-208 F176V): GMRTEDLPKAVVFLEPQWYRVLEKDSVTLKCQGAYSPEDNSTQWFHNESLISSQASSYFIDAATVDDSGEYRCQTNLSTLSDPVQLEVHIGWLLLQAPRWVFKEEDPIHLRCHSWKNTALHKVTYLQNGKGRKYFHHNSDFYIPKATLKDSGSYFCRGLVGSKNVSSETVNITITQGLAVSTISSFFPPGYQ

Chain of human FcγRIIb (CD32b) extracellular domain (human) (P31994 43-217): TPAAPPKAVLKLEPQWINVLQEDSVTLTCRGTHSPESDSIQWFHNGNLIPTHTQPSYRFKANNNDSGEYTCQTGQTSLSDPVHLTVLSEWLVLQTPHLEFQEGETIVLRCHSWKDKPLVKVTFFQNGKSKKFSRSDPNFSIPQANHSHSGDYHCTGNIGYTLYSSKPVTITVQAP
Chain of human FcγRIIA_131R (CD32a) extracellular domain (human) (P12318 34-217 H167R): as the sequence (P12318 34-217) above, with H134R counted along it
Chain of human FcγRIIIA_158F (CD16a) extracellular domain (human) (P08637 17-208): as the sequence (P08637 17-208 F176V) above, with V160F counted along it

pKd [1] | pKd [2] | pKd [3] | pKd [4] | pKd [5] | pKd [6] | Substance
5.51 | 5.89 | 6.13 | 6.17 | 10.28 |  | Hu IgG1 (antibody)
5.56 |  | 5.64 | 5.27 | 9.38 | 5.13 | Hu IgG4 SP (antibody)
